In patent US20210355180A1:

Legend:
[1] = molecular target: N-terminally biotinylated human Aβ1-40 peptide (human); experiment: SPR (Biacore 2000), periplasm diluted 15x over hAβ1-40 surface (blank control)
[2] = molecular target: N-terminally biotinylated human Aβ1-40 peptide (human); experiment: ELISA, ABD periplasm captured on anti-ABD, 2 nM biotinylated hAβ1-40

Sequence of N-terminally biotinylated human Aβ1-40 peptide (human) (peptide, as listed by the source): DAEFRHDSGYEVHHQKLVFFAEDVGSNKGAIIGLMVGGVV

- Response RU [1]: 2 RU
- ELISA response (absorbance 450 nm) [2]: 0.063 AU
Substance: ABD (albumin binding domain GA3 from streptococcal Protein G), periplasm control (from UniProt P19909 254-299)
